# Key:
# [1] = target: BEAT 2/3 (A): CH2 γ1 - BEAT CH3 (A) γ3; (B): CH2 γ1 - BEAT CH3 (B) γ1 (human); test: SPR; antibody covalently coupled onto a CM5 sensor chip, FcRn injected; HBS-EP+ adjusted to pH 6; room temperature; steady-state fitting model; regeneration with HBS-EP+ pH 7.4
# [2] = target: BEAT 2/3 (A): CH2 γ1 - BEAT CH3 (A) γ3; (B): CH2 γ1 - BEAT CH3 (B) γ1 D84.4Q (human); test: as above
# [3] = target: BEAT 2/3 (A): CH2 γ3 - BEAT CH3 (A) γ3; (B): CH2 γ1 - BEAT CH3 (B) γ1 (human); test: as above
# [4] = target: BEAT 2/3 (A): CH2 γ3 - BEAT CH3 (A) γ3; (B): CH2 γ1 - BEAT CH3 (B) γ1 D84.4Q (human); test: as above
# Herceptin IgG (human) [5] = test: as above
# Herceptin IgG (human) [6] = test: SPR; antibody captured via Protein A, FcγR1a injected; room temperature; 1:1 Langmuir model with Rmax set to local; regeneration with 10 mM glycine pH 1.5
# Herceptin IgG (human) [7] = test: SPR; antibody covalently coupled onto a CM5 sensor chip, Fc receptor extracellular domain injected; HBS-EP+ running buffer; room temperature; steady-state fitting model; no regeneration
# [8] = target: BEAT 2/3 (A): CH2 γ1 - BEAT CH3 (A) γ3; (B): CH2 γ1 - BEAT CH3 (B) γ1 (human); test: as above
# [9] = target: BEAT 2/3 (A): CH2 γ1 - BEAT CH3 (A) γ3; (B): CH2 γ1 - BEAT CH3 (B) γ1 D84.4Q (human); test: as above
# [10] = target: BEAT 2/3 (A): CH2 γ3 - BEAT CH3 (A) γ3; (B): CH2 γ1 - BEAT CH3 (B) γ1 D84.4Q (human); test: as above
# [11] = target: KiH (knobs-into-holes) Fc-like chain, second engineered CH3 domain (human); test: non-reduced SDS-PAGE with scanning densitometry of co-expressed chains (heterodimerization assay); two Fc-like chains co-transfected at a 1:1 ratio into HEK293-EBNA cells; Protein A-purified preparation; 4-12% gel, Coomassie staining; bands below the 49-kDa marker excluded
# [12] = target: MI (CH3) AG/GA Fc-like chain, GA domain (IgG1 CH3 with positions 85.1 and 86 and their set exchanged for IgA CH3 residues) (human); test: as above
# [13] = target: SEED Fc-like chain, the other SEED CH3 domain (human); test: as above
substance,measurement,setting,value
FcRn extracellular domain (with beta-2-microglobulin) (from UniProt P55899 24-297; P61769 21-119) (receptor),Kd,[1],708 nM
same,Kd,[2],686 nM
same,Kd,[3],543 nM
same,Kd,[4],577 nM
same,Kd,Herceptin IgG (human) [5],622 nM
FcγR1a extracellular domain (from UniProt P12314 16-292) (receptor),Kd,Herceptin IgG (human) [6],0.138 nM
"FcγR2a extracellular domain, variant H167 (from UniProt P12318 34-217) (receptor)",Kd,Herceptin IgG (human) [7],2000 nM
FcγR2b extracellular domain (from UniProt P31994 43-217) (receptor),Kd,Herceptin IgG (human) [7],4270 nM
"FcγR3a extracellular domain, variant V176 (from UniProt P08637 17-208) (receptor)",Kd,[8],206 nM
same,Kd,[9],347 nM
same,Kd,[10],238 nM
same,Kd,Herceptin IgG (human) [7],267 nM
"KiH (knobs-into-holes) Fc-like chain, first engineered CH3 domain (domain or fragment)",heterodimer content,[11],67%
"MI (CH3) AG/GA Fc-like chain, AG domain with Trp 81 back mutated to threonine (domain or fragment)",loss in HD rate against the heterodimer with Trp 81,[12],4%
SEED Fc-like chain with Trp 81 back mutated to threonine (domain or fragment),loss in HD rate against the heterodimer with Trp 81,[13],20%
"SEED Fc-like chain, the SEED CH3 domain that has Trp 81 (domain or fragment)",heterodimer content,[13],83%

# Source: paper PMC5465497
